Measured values from patent US9932404B2 (Janssen Biotech, Inc., dated 2018).
Changes are numbered by the printed parent chain.

B1: mAb 15EVQ (antibody)
heavy: not shown
light: DIQMTQSPSSLSASVGDRVTITCRASQSIGLYLAWYQQKPGKAPKLLIYAASSLQSGVPSRFSGSGSGTDFTLTISSLQPEDFATYYCQQGNTLSYTFGQGTKVEIKRTVAAPSVFIFPPSDEQLKSGTASVVCLLNNFYPREAKVQWKVDNALQSGNSQESVTEQDSKDSTYSLSSTLTLSKADYEKHKVYACEVTHQGLSSPVTKSFNRGEC
B2: mAb 13 (antibody, V domains shown)
VH: QVELVQSGAEVKKPGESLKISCKGSGYSFTNYWVGWVRQMPGKGLEWMGFIDPSDSYTNYAPSFQGQVTISADKSISTAYLQWSSLKASDTAMYYCARELYQGYMDTFDSWGQGTLVTVSS
VL: DIQMTQSPSSLSASVGDRVTITCRASQSIGLYLAWYQQKPGKAPKLLIYAASSLQSGVPSRFSGSGSGTDFTLTISSLQPEDFATYYCQQGESILSTFGQGTKVEIK
B3: mAb 19 (antibody, V domains shown)
VH: B2 VH
VL: B2 VL with G91Y, E92G, I94V, L95S, S96I
B4: mAb 14 (antibody, V domains shown)
VH: B2 VH
VL: DIQMTQSPSSLSASVGDRVTITCRASQSIGLYLAWYQQKPGKAPKLLIYAASSLQSGVPSRFSGSGSGTDFTLTISSLQPEDFATYYCQQAETVSPTFGQGTKVEIKR
B5: mAb 3 (antibody, V domains shown)
VH: QVELQQSGPGLVKPSQTLSLTCAISGDSVSTRSAAWGWIRQSPGRGLEWLGRIHRRSKWYNDYAVSVKSRITINPDTSKNQFSLQLNSVTPEDTAVYYCARHTYPYLSFDVWGQGTLVTVSS
VL: DIELTQPPSVSVAPGQTARISCSGDALGGYFVSWYQQKPGQAPVLVIYDDDNRPSGIPERFSGSNSGNTATLTISGTQAEDEADYYCASYDGDEFTVFGGGTKLTVL
B6: mAb 17 (antibody, V domains shown)
VH: B5 VH with H54Y, R55M
VL: B5 VL
B7: mAb 6 (antibody, V domains shown)
VH: B5 VH with H54Y, R55M
VL: B5 VL with A88G, G92S, D93N, E94S, F95L
B8: mAb 4 (antibody, V domains shown)
VH: B5 VH with R52K, H54S, R55Y, K58R
VL: B5 VL
B9: mAb 7 (antibody, V domains shown)
VH: B5 VH with H54Y, R55M
VL: B5 VL with A88S, G92S, E94S, F95L
B10: mAb 5 (antibody, V domains shown)
VH: B5 VH with H54Y, R55M
VL: B5 VL with A88Q, G92E, E94S, F95A
B11: mAb 8 (antibody, V domains shown)
VH: QVELQQSGPGLVKPSQTLSLTCAISGDSVSSNSAAWGWIRQSPGRGLEWLGIIQTRSKWYNDYAVSVKSRITINPDTSKNQFSLQLNSVTPEDTAVYYCARYSYPFYSIDYWGQGTLVTVSS
VL: DIELTQPPSVSVAPGQTARISCSGDNIGSYYVHWYQQKPGQAPVLVIYEDSERPSGIPERFSGSNSGNTATLTISGTQAEDEADYYCQSYDSQFSFGVFGGGTKLTVL
B12: mAb 11 (antibody, V domains shown)
VH: B11 VH with T55K, D62N
VL: DIELTQPPSVSVAPGQTARISCSGDNIGSYYVHWYQQKPGQAPVLVIYEDSERPSGIPERFSGSNSGNTATLTISGTQAEDEADYYCSSYDEPNFNVFGGGTKLTVL
B13: mAb 18 (antibody, V domains shown)
VH: B11 VH with T55K, D62N
VL: B11 VL
B14: mAb 10 (antibody, V domains shown)
VH: B11 VH with T55K, D62N
VL: B12 VL with S88Q, E92T, N94V, F95Y, N96S
B15: mAb 12 (antibody, V domains shown)
V domain 1: B11 VH with T55K, D62N
V domain 2: B11 VH with Q1D, V2I, T55K, D62N
B16: mAb 9 (antibody, V domains shown)
VH: B11 VH with T55I, V65L
VL: B11 VL
B17: mAb 1 (antibody, V domains shown)
V domain 1: GVELVQSGAEVKKPGESLKISCKGSGYSFTDNWISWVRQAPGKGLEWMGVIDPSDSYTNYAPSFQGQVTISADKSISTAYLQWSSLKASDTAMYYCAREWGIGGMVDIWG
V domain 2: DIVLTQSPATLSLSPGERATLSCRASQYIDISYLAWYQQKPGQAPRLLIYDASSRATGVPARFSGSGSGTDFTLTISSLEPEDFAVYYCQQYYSLSITFGQGTKVEIK
B18: mAb 15 (antibody)
heavy: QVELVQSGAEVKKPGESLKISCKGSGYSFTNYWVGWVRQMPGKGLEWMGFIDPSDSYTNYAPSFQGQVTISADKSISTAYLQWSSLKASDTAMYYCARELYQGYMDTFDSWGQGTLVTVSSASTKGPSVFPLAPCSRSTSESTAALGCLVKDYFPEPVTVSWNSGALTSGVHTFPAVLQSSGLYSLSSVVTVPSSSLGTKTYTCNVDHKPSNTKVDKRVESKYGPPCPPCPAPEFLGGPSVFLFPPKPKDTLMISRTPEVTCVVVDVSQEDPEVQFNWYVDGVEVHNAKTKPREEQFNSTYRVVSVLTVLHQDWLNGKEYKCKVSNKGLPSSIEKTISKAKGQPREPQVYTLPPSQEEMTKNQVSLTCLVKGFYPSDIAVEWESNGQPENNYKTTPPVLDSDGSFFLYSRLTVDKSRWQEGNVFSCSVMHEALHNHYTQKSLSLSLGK
light: B1 light
B19: mAb 2 (antibody, V domains shown)
VH: QVELVQSGAEVKKPGESLKISCKGSGYSFNNYWIGWVRQMPGKGLEWMGIIDPQDSWTNYAPSFQGQVTISADKSISTAYLQWSSLKASDTAMYYCARNIYEFDYWGQGTLVTVSS
VL: DIQMTQSPSSLSASVGDRVTITCRASQGISSWLNWYQQKPGKAPKLLIYGASNLQSGVPSRFSGSGSGTDFTLTISSLQPEDFAVYYCQQYDDFSITFGQGTKVEIK
B20: mAb 16 (antibody, V domains shown)
VH: B19 VH with Q54G, W57Y
VL: B19 VL
B21: mAb 5429 (antibody, V domains shown)
VH: EVQLVASGGGLVKPGASLKLSCVASGFTFSDYWMAWVRQTPGKPMEYIGDIKSDGSKVNYAPSLKNRFTISRDNARTTLYLQMSNVRSEDTATYYCNRDIGPDWYFDFWGPGTMVTVSS
VL: DIQMTQSPTSLSASLGETVTIECRASEDIYNGLAWYQQKPGKSPQLLIYDSNSLHTGVPSRFSGRGSGTQYSLRINSLQSEDVASYFCQQYYDYPLTFGSGTKLEIKR

biological target: cynomolgus TLR3 (cynomolgus, UniProt A0A2K5WT39); assay: cell-based or functional assay

| IC50, ISRE reporter gene assay [µg/mL] | IC50, NF-κB reporter gene assay [µg/mL] | Binder |
| --- | --- | --- |
| 1.74 | 4.18 | B1 |

biological target: full length human TLR3 (human); assay: cell-based or functional assay

| % inhibition of poly(I:C)-induced NF-κB luciferase reporter [%] | Binder |
| --- | --- |
| > 50 | B2 |
| > 50 | B3 |
| > 50 | B4 |
| > 50 | B5 |
| > 50 | B6 |
| > 50 | B7 |
| > 50 | B8 |
| > 50 | B9 |
| > 50 | B10 |
| > 50 | B11 |
| > 50 | B12 |
| > 50 | B13 |
| > 50 | B14 |
| > 50 | B15 |
| > 50 | B16 |
| > 50 | B17 |
| > 50 | B18 |
| > 50 | B19 |
| > 50 | B20 |

biological target: full-length murine TLR3 (mouse); assay: cell-based or functional assay

| IC50, poly(I:C)-induced ISRE luciferase reporter [µg/mL] | Binder |
| --- | --- |
| 0.5 | B21 |
| 22 | B18 |
